B1: DVL3 (parent)
chain: SDVVDWLYHNVEGFTDRREARKYA

Variants of: B1
Assay: protein stability index of a GFP-peptide fusion (GPS, HEK-293T) (PSI 1-6); higher = more stable
Conditions: c terminus: a fixed tail appended
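Also: lentivirally expressed fusions sorted by FACS into six bins by GFP to DsRed ratio, PSI derived from sequencing read proportions per bin multiplied by bin number.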

Protein stability index, by site and new letter:
H9: D 3.66, V 2.16, C 2.13, S 2.94, Q 3.11, R 2.8, Y 3.21, I 2.09, T 2.67, A 2.37, P 4, K 2.67, M 2.79, F 2.14, L 2.55, G 3.32, W 2.42, N 3.83
N10: I 2.25, L 2, T 3.33, A 2.1, V 2.58, W 2.63, Q 2.91, S 3.01, M 1.94, K 2.34, F 1.75, R 2.6, D 4.09, H 2.7, E 3.69, Y 2.01, G 3.03, C 2.1
L7: W 3.58, I 3.01, T 4.05, D 4.58, H 4.68, V 3.5, Q 4.31, M 3.44, S 4.75, K 4.64, F 2.12, P 3.63, E 5.12, C 3.65, A 3.54, Y 3.28, R 2.65, G 4.25
V4: R 3.84, P 3.81, M 3.76, E 4.08, Y 3.21, W 2.44, Q 3.67, L 2.98, K 3.46, N 3.89, H 3.52, T 3.6, C 2.77, I 2.56, G 3.84, A 3.09, S 3.68, D 3.78, F 3.53
W6: Y 3.6, G 4.32, N 4.95, T 4.54, P 4.86, H 4.21, E 4.97, D 4.75, S 4.76, R 4.79, M 3.82, C 3.81, L 4.35, I 4.13, K 4.38, Q 4.22, V 4.58, F 2.9, A 4.58
Y8: I 2.39, M 2.74, C 3.79, T 3.63, S 3.56, L 2.27, E 4.2, N 3.87, D 4.61, K 3.83, P 4.51, V 2.93, W 2.31, G 4.25, Q 3.81
V11: C 3.07, E 3.53, P 4.08, M 2.58, G 4.04, A 2.8, I 2.61, L 2.03, T 2.67, D 3.62, W 2.36, K 3.85, R 3.1, Y 3.48, N 3.83, S 2.45, Q 3.36, H 3.6, F 2.46
E12: L 2.08, G 2.37, H 2.88, Q 2.98, W 2.04, N 2.5, M 2.01, A 3.49, R 2.78, V 1.28, T 2.63, F 1.98, D 2.96, P 2.33, I 1.94, S 2.83, K 3.54, C 2.18
V3: T 4.13, R 3.95, Y 3, W 2.04, S 3.44
D5: G 3.06, E 3.6, N 2.07, L 1.41, P 3.71, Q 3.23, I 1.82, M 2.87, V 1.19, F 2.21, C 1.84, S 2.5, H 2.44, W 1.7, T 2.75, Y 2.53, K 2.36, A 1.98

From the supplement of paper PMC10567573
